# Data taken from patent US20200109188A1 (AstraZeneca / MedImmune, published 2020).
# Read-outs that look alike come from different tables or passages of the source.
# Experiments:
# Experiment in all cases: cell-based or functional assay
# [1] = target: HA of ca A/Wuhan/359/95 (H3N2) virus (influenza A virus)
# [2] = target: HA of A/Fort Monmouth/1/47 (H1N1) virus (influenza A virus)
# [3] = target: HA of A/Kawasaki/9/86 (H1N1) virus (influenza A virus)
# [4] = target: HA of ca A/Texas/36/91 (H1N1) virus (influenza A virus)
# [5] = target: HA of ca A/Beijing/262/95 (H1N1) virus (influenza A virus)
# [6] = target: HA of ca A/New Caledonia/20/99 (H1N1) virus (influenza A virus)
# HA of H1-BS10 virus = target: HA of H1-BS10 virus
# [7] = target: HA of A/Hong Kong/8/68 (H3N2) virus (influenza A virus)
# [8] = target: HA of A/Victoria/3/75 (H3N2) virus (influenza A virus, UniProt P03435 17-567)
# HA of A/Victoria/3/75 (H3N2) virus, sequence (P03435 17-567 limits assumed): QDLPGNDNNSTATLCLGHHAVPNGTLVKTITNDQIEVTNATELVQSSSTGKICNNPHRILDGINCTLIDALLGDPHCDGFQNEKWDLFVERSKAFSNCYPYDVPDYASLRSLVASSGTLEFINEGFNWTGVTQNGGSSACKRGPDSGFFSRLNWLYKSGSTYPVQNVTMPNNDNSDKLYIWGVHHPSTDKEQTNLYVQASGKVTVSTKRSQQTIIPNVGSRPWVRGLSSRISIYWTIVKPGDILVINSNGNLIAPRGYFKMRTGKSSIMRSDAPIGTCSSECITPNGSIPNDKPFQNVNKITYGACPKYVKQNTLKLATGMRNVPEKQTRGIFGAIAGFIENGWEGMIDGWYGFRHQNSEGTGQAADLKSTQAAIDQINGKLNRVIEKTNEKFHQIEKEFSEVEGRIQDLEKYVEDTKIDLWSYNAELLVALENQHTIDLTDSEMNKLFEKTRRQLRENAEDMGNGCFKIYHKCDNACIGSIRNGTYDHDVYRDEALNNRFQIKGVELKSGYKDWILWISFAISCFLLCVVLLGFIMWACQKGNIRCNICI
# [9] = target: HA of H3-LA87 (A/Los Angeles/7/09 (H3N2)) virus (influenza A virus)
# [10] = target: HA of ca A/Wuhan/359/95 (H3N2) virus (influenza A virus); remark: listed apart in the source
# [11] = target: HA of ca A/Sydney/5/97 (H3N2) virus (influenza A virus)
# [12] = target: HA of ca A/Panama/2007/99 (H3N2) virus (influenza A virus)
# [13] = target: HA of A/Wisconsin/67/05 (H3N2) virus (influenza A virus)
# [14] = target: HA of ca A/Perth/16/09 (H3N2) virus (influenza A virus)
# [15] = target: HA of A/Victoria/361/11 (H3N2) virus (influenza A virus)
# [16] = target: HA of A/Puerto Rico/8/34 (H1N1) virus (influenza A virus, UniProt P03452 18-565)
# HA of A/Puerto Rico/8/34 (H1N1) virus, sequence (P03452 18-565 limits assumed): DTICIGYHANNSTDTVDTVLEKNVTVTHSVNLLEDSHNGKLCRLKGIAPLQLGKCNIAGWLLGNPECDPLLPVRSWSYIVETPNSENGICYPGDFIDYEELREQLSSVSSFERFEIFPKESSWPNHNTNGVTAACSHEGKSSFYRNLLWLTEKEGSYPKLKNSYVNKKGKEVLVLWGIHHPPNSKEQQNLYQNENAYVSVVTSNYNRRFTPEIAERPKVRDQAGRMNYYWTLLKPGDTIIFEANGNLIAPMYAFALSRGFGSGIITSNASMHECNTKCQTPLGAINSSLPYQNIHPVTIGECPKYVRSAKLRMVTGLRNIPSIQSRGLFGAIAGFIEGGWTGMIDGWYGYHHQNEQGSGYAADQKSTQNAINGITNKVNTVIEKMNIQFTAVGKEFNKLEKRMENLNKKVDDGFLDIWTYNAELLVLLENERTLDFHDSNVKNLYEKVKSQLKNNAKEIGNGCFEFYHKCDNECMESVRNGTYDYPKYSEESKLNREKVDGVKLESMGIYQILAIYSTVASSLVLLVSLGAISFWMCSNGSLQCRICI
Binder,"Neutralization IC50, H3-WH95 [1] [µg/mL]","Neutralization IC50, H1-FM47 [2] [µg/mL]","Neutralization IC50, H1-Kaw86 [3] [µg/mL]","Neutralization IC50, H1-TX91 [4] [µg/mL]","Neutralization IC50, H1-BJ95 [5] [µg/mL]","Neutralization IC50, H1-Ncal99 [6] [µg/mL]","Neutralization IC50, H1-BS10 (HA of H1-BS10 virus) [µg/mL]","Neutralization IC50, H3-HK68 [7] [µg/mL]","Neutralization IC50, H3-Vic75 [8] [µg/mL]","Neutralization IC50, H3-LA87 [9] [µg/mL]","Neutralization IC50, H3-WH95 [10] [µg/mL]","Neutralization IC50, H3-WH95-OR [10] [µg/mL]","Neutralization IC50, H3-Syd97 [11] [µg/mL]","Neutralization IC50, H3-Pa99 [12] [µg/mL]","Neutralization IC50, H3-Wl05 [13] [µg/mL]","Neutralization IC50, H3-Perth09 [14] [µg/mL]","Neutralization IC50, H3-VC11 [15] [µg/mL]",IC50 (read off the curve) [16] [µg/mL]
"Antibody 8 (antibody, V domains shown) VH: QVQLQQSGPGLVKPSQTLSLTCVISGDTVSSNRATWNWMRQSPLRGLEWLGRTYYRSKWYNDYAVSVKSRVVINPDTSKNQVSLQLNTVTPDDSGVYFCARGGHITVFGVNIDAFDIWGLGTKVTVSS VL: DIQMTQSPSSLSASVGDRVTISCRASQRLNSYLHWYQQTPGQAPKLLIYATSTLQSGVSPRFSGSGSGTDFTLTISSLQPEDVATYYCQLSRTFGHGTKVEIK",> 50,–,–,–,–,–,–,–,–,–,–,–,–,–,–,–,–,–
"Antibody 5 (antibody, V domains shown) VH: QVQLQQSGPGLVKPSQTLSLTCAISGDRVSSNSAVWNWIRQSPSRGLEWLGRTYYRSKWYYDYAESVKSRIVIDPDTSKNQVSLQLNSVTPEDSAIYYCARGGHITVFGLNIDAYDIWGQGAMVTVSS VL: DIQMTQSPSSLSASVGDRVTISCRAQSLSSYLHWYQQKPGQPPKLLIYAATTLQSGVPSRFSGSGSGTDFTLTISTFQAEDVATYYCQQSRTFGQGTKVEIK",3.72,–,–,–,–,–,–,–,–,–,–,–,–,–,–,–,–,–
"Antibody 6 (antibody, V domains shown) VH: QVQLQQSGPGLVKPSQTLSLTCAISGDRVSSNSAVWNWIRQSPSRGLEWLGRTYYRSKWYYDYAESVKSRIVIDPDTSKNQVSLQLNSVTPEDSAIYYCARGGHITEFGLNIDAYDIWGQGAMVTVSS VL: DIQMTQSPSSLSASVGDRVTISCRAQSLSSYLHWYQQKPGQPPKLLIYAATTLQSGVPSRFSGSGSGTDFTLTISTFQAEDVATYYCQQSRTFGQGTKVEIK",10.5,–,–,–,–,–,–,–,–,–,–,–,–,–,–,–,–,–
"Antibody 11 (antibody, V domains shown) VH: QVQLQQSGPGLVKPSQTLSLTCAISGDSVSSYNAVWNWIRQSPSRGLEWLGRTYYRSGWYNDYAESVKSRITINPDTSKNQFSLQLNSVTPEDTAVYYCARSGHITVFGVNVDAFDMWGQGTMVTVSS VL: DIQMTQSPSSLSASVGDRVTITCRTSQSLSSYTHWYQQKPGKAPKLLIYAASSRLSGVPSRFSGSGSGTDFTLTISSLQPEDFATYYCQQSRTFGQGTKVEIK",–,0.43,0.53,0.11,1.01,0.66,1.15,0.46,0.46,0.8,2.45,2.26,1.53,2.18,1.07,0.17,0.85,–
"Antibody 3 (antibody, V domains shown) VH: QVQLQESGPGLVKPSQTLSLTCAISGDSVSSNNAVWNWIRQSPSRGLEWLGRTYYRSKWYNDYAESVKSRITVNPDTSKNQFSLHLKSVTPEDTAVFYCVRSGHITVFGVNVDAFDMWGQGTMVTVSS VL: DIQMTQSPSSLSASVGDRVTITCRTSQSLSSYLHWYQQKPGKAPKLLIYAASSLQSGVPSRFSGSGSGTDFTLTISSLQPEDFATYYCQQSRTFGQGTKVEIK",3.96,–,–,–,–,–,–,–,–,–,5.63,7.7,–,–,–,–,–,~0.6
"Antibody 14 (antibody, V domains shown) VH: QVQLQQSGPGLVKPSQTLSLTCAISGDSVSSNNAVWNWIRQSPSRGLEWLGRTYYRSKWYNDYAESVKSRITINPDTSKNQFSLQLNSVTPEDTAVYYCARSGHITVFGVNVDAFDMWGQGTTVTVSS VL: DIQMTQSPSSLSASVGDRVTITCRTSQSLSSYTHWYQQKPGKAPKLLIYAASSRLSGVPSRFSGSGSGTDFTLTISSLQPEDFATYYCQQSRTFGQGTKVEIK",–,0.44,0.35,0.09,2.09,0.67,1.93,0.65,0.44,0.83,2.77,3.09,1.82,4.36,1.19,0.47,1.15,–
"Antibody 13 (antibody, V domains shown) VH: QVQLQQSGPGLVKPSQTLSLTCAISGDSVSSYNAVWNWIRQSPSRGLEWLGRTYYRSGWYNDYAESVKSRITINPDTSKNQFSLQLNSVTPEDTAVYYCARSGHITVFGVNVDAFDMWGQGTMVTVSS VL: DIQMTQSPSSLSASVGDRVTITCRTSQSLSSYDHWYQQKPGKAPKLLIYAASSRLSGVPSRFSGSGSGTDFTLTISSLQPEDFATYYCQQSRTFGQGTKVEIK",–,0.5,0.41,0.09,1.86,0.77,1.23,0.44,0.43,1,2.77,3.01,2.18,2.62,1.19,0.28,1.03,–
"Antibody 15 (antibody, V domains shown) VH: QVQLQQSGPGLVKPSQTLSLTCAISGDSVSSNNAVWNWIRQSPSRGLEWLGRTYYRSKWYNDYAESVKSRITINPDTSKNQFSLQLNSVTPEDTAVYYCARSGHITVFGVNVDAFDMWGQGTTVTVSS VL: DIQMTQSPSSLSASVGDRVTITCRTSQSLSSYTHWYQQKPGKAPKLLIYAASSRGSGVPSRFSGSGSGTDFTLTISSLQPEDFATYYCQQSRTFGQGTKVEIK",–,0.35,0.48,0.13,1.81,0.79,1.89,0.5,0.35,0.83,3.32,3.48,1.79,3.39,1.3,0.5,1.29,–
"Antibody 10 (antibody, V domains shown) VH: QVQLQQSGPGLVKPSQTLSLTCAISGDSVSSNSATWNWIRQSPSRGLEWLGRTYYRSKWYNDYADFLKRRITINPDTSNNEVSLRLTSVTPDDTALYYCARGGHITVFGVNIDAFDVWGQGTMVTVSS VL: DIQMTQSPSSLSASVGDRITISCRTSQSLRSYLHWYQQKPGKAPKLLIYASSTLQSGVPSRFSGSGSGTDFTLTISNLQPEDFATYYCQLSRTFGQGTKVEIK",8.7,–,–,–,–,–,–,–,–,–,–,–,–,–,–,–,–,–
"Antibody 12 (antibody, V domains shown) VH: QVQLQQSGPGLVKPSQTLSLTCAISGDSVSSYNAVWNWIRQSPSRGLEWLGRTYYRSGWYNDYAESVKSRITINPDTSKNQFSLQLNSVTPEDTAVYYCARSGHITVFGVNVDAFDMWGQGTMVTVSS VL: DIQMTQSPSSLSASVGDRVTITCRTSQSLSSYTHWYQQKPGKAPKLLIYAASSRGSGVPSRFSGSGSGTDFTLTISSLQPEDFATYYCQQSRTFGQGTKVEIK",–,0.28,0.28,0.12,1.31,0.61,1.25,0.42,0.32,0.82,2.09,2.34,1.56,–,–,0.25,0.83,~0.5
